Results: article PMC3986302 (International Journal of Nanomedicine, 2014)

Target: T1, full-length p63 (GST-fusion) (human, UniProt Q9H3D4 1-680)
T1 sequence (looked up): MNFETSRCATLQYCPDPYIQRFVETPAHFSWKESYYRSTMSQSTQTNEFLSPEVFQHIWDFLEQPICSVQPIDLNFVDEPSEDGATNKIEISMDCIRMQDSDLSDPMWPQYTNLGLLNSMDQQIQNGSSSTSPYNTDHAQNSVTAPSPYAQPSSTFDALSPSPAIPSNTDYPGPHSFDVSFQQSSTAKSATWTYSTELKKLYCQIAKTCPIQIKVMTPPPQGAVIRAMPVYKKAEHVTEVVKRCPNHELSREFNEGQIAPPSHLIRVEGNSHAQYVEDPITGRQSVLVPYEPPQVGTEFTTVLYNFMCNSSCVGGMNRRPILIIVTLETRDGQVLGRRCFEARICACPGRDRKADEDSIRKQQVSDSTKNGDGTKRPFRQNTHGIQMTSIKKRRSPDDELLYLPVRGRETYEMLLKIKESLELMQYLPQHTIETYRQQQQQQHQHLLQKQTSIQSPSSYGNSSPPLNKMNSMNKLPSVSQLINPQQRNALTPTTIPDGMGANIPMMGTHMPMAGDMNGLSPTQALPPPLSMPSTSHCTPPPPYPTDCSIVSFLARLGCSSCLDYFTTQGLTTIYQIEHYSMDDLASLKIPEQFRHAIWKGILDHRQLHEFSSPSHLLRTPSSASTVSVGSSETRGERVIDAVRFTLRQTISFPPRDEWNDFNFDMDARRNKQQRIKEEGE
Assay: atomic force spectroscopy

LSTAADMQGVVTDGMASGLDKDYLKPDD [p28]: binds.
